Reference: article PMC3411929 (Journal of structural biology, 2012)

Molecular target: the molecule itself
Experiment: SEC

B1: human spastin amino acids 228-616 containing the E442Q mutation (domain or fragment, UniProt Q9UBP0 228-616, looked up)
chain: ESGAVPKRKDPLTHTSNSLPRSKTVMKTGSAGLSGHHRAPSYSGLSMVSGVKQGSGPAPTTHKGTPKTNRTNKPSTPTTATRKKKDLKNFRNVDSNLANLIMNEIVDNGTAVKFDDIAGQDLAKQALQEIVILPSLRPELFTGLRAPARGLLLFGPPGNGKTMLAKAVAAESNATFFNISAASLTSKYVGEGEKLVRALFAVARELQPSIIFIDQVDSLLCERREGEHDASRRLKTEFLIEFDGVQSAGDDRVLVMGATNRPQELDEAVLRRFIKRVYVSLPNEETRLLLLKNLLCKQGSPLTQKELAQLARMTDGYSGSDLTALAKDAALGPIRELKPEQVKNMSASEMRNIRLSDFTESLKKIKRSVSPQTLEAYIRWNKDFGDTTV
  stoichiometry N: 6
